Here are results for three molecules from article PMC5698462, “Production of recombinant human procollagen type I C-terminal propeptide and establishment of a sandwich ELISA for quantification” (Scientific Reports, 2017).

B1: Procollagen type I carboxy-terminal propeptide α1 chain (PICPα1), residues 1218–1464, with N-terminal 8× His tag (domain or fragment, human, UniProt P02452 1218-1464, looked up)
chain: ADDANVVRDRDLEVDTTLKSLSQQIENIRSPEGSRKNPARTCRDLKMCHSDWKSGEYWIDPNQGCNLDAIKVFCNMETGETCVYPTQPSVAQKNWYISKNPKDKRHVWFGESMTDGFQFEYGGQGSDPADVAIQLTFLRLMSTEASQNITYHCKNSVAYMDQQTGNLKKALLLQGSNEIEIRAEGNSRFTYSVTVDGCTSHTGAWGKTVIEYKTTKTSRLPIIDVAPLDVGAPDQEFGFDVGPVCFL
notes: C-terminal propeptide of the human type I procollagen α1 chain, residues 1218–1464 (residue numbers of type I procollagen); Cloned into pSecTag2A (AscI/ApaI) for secretion; Two copies of this chain stand with one PICPα2 chain in the disulfide-linked PICP heterotrimer; also called 8× His-tagged PICPα1; recombinant PICPα1 chain; source: HEK293F, transiently co-transfected with the PICPα2 plasmid at …
B2: Procollagen type I carboxy-terminal propeptide α2 chain (PICPα2), residues 1120–1366, with N-terminal c-myc tag (domain or fragment, human, UniProt P08123 1120-1366, looked up)
chain: DQPRSAPSLRPKDYEVDATLKSLNNQIETLLTPEGSRKNPARTCRDLRLSHPEWSSGYYWIDPNQGCTMDAIKVYCDFSTGETCIRAQPENIPAKNWYRSSKDKKHVWLGETINAGSQFEYNVEGVTSKEMATQLAFMRLLANYASQNITYHCKNSIAYMDEETGNLKKAVILQGSNDVELVAEGNSRFTYTVLVDGCSKKTNEWGKTIIEYKTNKPSRLPFLDIAPLDIGGADQEFFVDIGPVCFK
notes: C-terminal propeptide of the human type I procollagen α2 chain, residues 1120–1366 (residue numbers of type I procollagen); a restriction site was removed by a silent mutation; Cloned into pSecTag2A (AscI/ApaI) for secretion; also called c-myc-tagged PICPα2; source: HEK293F, transiently co-transfected with the PICPα1 plasmid (PICPα1:PICPα2 2:1 molar ratio), secreted; co-purified from culture …

The target in data set [1] is B2. Briefly: non-reducing and reducing SDS-PAGE (stain, western blot) and SDS-CGE; purified proteins run under non-reducing and reducing conditions; band intensity (ImageJ) and peak area (Agilent 2100 bioanalyzer, Protein 230 kit) quantified; disulfide-linked trimers. Conditions: both partners purified. Background: A western blot detects proteins with antibodies after separation by electrophoresis.

Data set [2] addresses B1. Briefly: pull-down; Ni-NTA purification through the 8× His tag on PICPα1 from culture supernatant of HEK293F cells co-transfected with PICPα1 and PICPα2 plasmids (2:1); western blot with anti-His and anti-c-myc antibodies, non-reducing and reducing SDS-PAGE. Particulars: partners not purified.
Data set [3] deals with the molecule itself. Briefly: SEC; Superdex 200 10/300 GL; purified PICP (2 mg/mL) in TBS (500 mM NaCl, 2.7 mM KCl, 12 mM Tris, pH 7.4); purified PIIICP in PBS pH 7.4; apparent molecular weight against standard markers. In general terms: Size exclusion chromatography separates by hydrodynamic size, large species first.

As usually defined, the stoichiometry N is the number of molecules, sites or subunits per partner or assembly. For the molecule B1, the “stoichiometry N” value in data set [1] is 2 PICPα1 chains per PICPα2 chain. As to B2, the binding result in data set [2] was “binds”.

B3: Procollagen type III C-terminal propeptide (PIIICP), homotrimer of PIIICPα1 (residues 1222–1466) with N-terminal 8× His tag (domain or fragment, human, UniProt P02461 1222-1466, looked up)
chain: DEPMDFKINTDEIMTSLKSVNGQIESLISPDGSRKNPARNCRDLKFCHPELKSGEYWVDPNQGCKLDAIKVFCNMETGETCISANPLNVPRKHWWTDSSAEKKHVWFGESMDGGFQFSYGNPELPEDVLDVHLAFLRLLSSRASQNITYHCKNSIAYMDQASGNVKKALKLMGSNEGEFKAEGNSKFTYTVLEDGCTKHTGEWSKTVFEYRTRKAVRLPIVDIAPYDIGGPDQEFGVDVGPVCFL
notes: C-terminal propeptide of the human type III procollagen α1 chain, residues 1222–1466; Mammalian secretion plasmid; also called 8× His-tagged PIIICPα1; recombinant PIIICP; source: HEK293F, transiently transfected, secreted; purified from culture supernatant (Ni-NTA); not shown: 8× His, N-terminal, kept
B3: the “stoichiometry N” value in data set [3] is 3.
